Measured values: patent publication US11162124B2, “Alcohol dehydrogenase mutant and application thereof in cofactor regeneration” (Jiangnan University, priority 2018, dated 2021)
Positions count from the first letter of the chain named. Names and notes keep the numbering of the source.

Columns and labels:
[1] = molecular target: T1, alcohol dehydrogenase KpADH mutant M5 (V84I/Y127M; parent SEQ ID No. 1) (Vanderwaltozyma polyspora, UniProt A7TM80, V84I/Y127M); test: Kinetic analysis of KpADH mutant M5 toward diol co-substrates; type: biochemical; settings: mutant M5 relative to wild-type KpADH
T1 sequence (A7TM80 1-342 V84I/Y127M): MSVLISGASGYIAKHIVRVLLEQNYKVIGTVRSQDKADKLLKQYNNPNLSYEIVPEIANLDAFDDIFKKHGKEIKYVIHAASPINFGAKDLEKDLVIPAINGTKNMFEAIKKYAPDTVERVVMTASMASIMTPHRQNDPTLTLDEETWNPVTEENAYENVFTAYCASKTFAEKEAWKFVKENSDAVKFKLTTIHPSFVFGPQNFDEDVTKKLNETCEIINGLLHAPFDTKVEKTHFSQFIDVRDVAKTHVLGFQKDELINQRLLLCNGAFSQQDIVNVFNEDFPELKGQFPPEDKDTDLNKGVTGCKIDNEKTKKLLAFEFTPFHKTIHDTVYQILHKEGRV
Experimental: (§1) the M5 is obtained by mutating valine at position 84 into isoleucine and tyrosine at position 127 into methionine in alcohol dehydrogenase having an original amino acid sequence as set forth in SEQ ID No. 1.
(§2) Changes in absorbance at 340 nm are measured.
(§3) The enzyme activity is calculated using the following formula: Enzyme activity (U)=EW×V×10^3/(6220×I);
(§4) In the formula, EW is the change in absorbance at 340 nm in 1 min; V is the volume of the reaction solution in mL; 6220 is the molar extinction coefficient of NAD(P)H in L/(mol·cm); I is optical distance in cm.
(§5) One unit of activity (U) corresponds to the amount of enzyme required for the catalytic oxidation of 1 μmol NADP^+ per minute under the above conditions.
(§6) Kinetic measurement is conducted according to the enzyme activity assay, with 10 μL of alcohol substrates of different concentrations, 1 mM NADP^+, 10 μL of enzymes of appropriate concentrations, 170 μL of glycine-sodium hydroxide buffer at pH 9.5, with each sample in triplicate. […] The calculation formulas are as follows: […]
(§7) The Vmax and Km values can be calculated from the intercepts of the double reciprocal plot on the X and Y axes;
(§8) The kcat value can be further calculated according to the formula.
(§9) The activity of KpADH under different substrate concentrations and cofactor concentrations was measured, and a double reciprocal plot was made according to the reciprocals of the activity and substrate concentration. The kinetic parameters were calculated.
(§10) The activity of KpADH under different substrate concentrations and cofactor concentrations was measured, and a double reciprocal plots were made according to the reciprocals of the activity and substrate concentration. The kinetic parameters were calculated.

[2] = molecular target: alcohol dehydrogenase KpADH, wild type, SEQ ID No. 1 (Vanderwaltozyma polyspora, UniProt A7TM80); test: Kinetic analysis of wild-type KpADH toward diol co-substrates; type: biochemical; settings: 1 mM NADP+, Gly-NaOH pH 9.5, 30° C.
Experimental: as §2, §3, §4
(§11) One unit of activity (U) corresponds to the amount of enzyme required for the catalytic oxidation of 1 μmol NADP^+ per minute under the above conditions. […]
as §7, §8, §9, §10

[3] = molecular target: T2, alcohol dehydrogenase KpADH mutant M3 (Y127M; parent SEQ ID No. 1) (Vanderwaltozyma polyspora, UniProt A7TM80, Y127M); test: Kinetic analysis of KpADH mutant M3 toward diol co-substrates; type: biochemical; settings: for catalytic efficiency kcat/Km, times that of wild-type KpADH: mutant M3 relative to wild-type KpADH
T2 sequence (A7TM80 1-342 Y127M): T1 sequence (A7TM80 1-342 V84I/Y127M) with I84V
Experimental: (§12) M3 is obtained by mutating tyrosine at position 127 into methionine in alcohol dehydrogenase having an original amino acid sequence as set forth in SEQ ID No. 1;
as §2, §3, §4, §5, §6, §7, §8, §9, §10

OCCCCO = test: purified protein, by the assay type; settings: Gly-NaOH pH 9.5, 30° C.
[4] = molecular target: T3, alcohol dehydrogenase KpADH mutant M2 (Y127C; parent SEQ ID No. 1) (Vanderwaltozyma polyspora, UniProt A7TM80, Y127C); test: Kinetic analysis of KpADH mutant M2 toward diol co-substrates; type: biochemical
T3 sequence (A7TM80 1-342 Y127C): T1 sequence (A7TM80 1-342 V84I/Y127M) with I84V, M127C
Experimental: (§13) M2 is obtained by mutating tyrosine at position 127 into cysteine in alcohol dehydrogenase having an original amino acid sequence as set forth in SEQ ID No. 1;
as §2, §3, §4, §11, §7, §8, §9, §10

[5] = molecular target: T4, alcohol dehydrogenase KpADH mutant M1 (V84I; parent SEQ ID No. 1) (Vanderwaltozyma polyspora, UniProt A7TM80, V84I); test: Kinetic analysis of KpADH mutant M1 toward diol co-substrates; type: biochemical
T4 sequence (A7TM80 1-342 V84I): T1 sequence (A7TM80 1-342 V84I/Y127M) with M127Y
Experimental: (§14) M1 is obtained by mutating valine at position 84 into isoleucine in alcohol dehydrogenase having an original amino acid sequence as set forth in SEQ ID No. 1;
as §2, §3, §4, §5, §6, §7, §8, §9, §10

[6] = substrate: OCCCCCO; test: Kinetic analysis of wild-type KpADH toward diol co-substrates; type: biochemical; settings: other: wild-type KpADH, 1 mM NADP+, Gly-NaOH pH 9.5, 30° C.
Experimental: as §2, §3, §4, §5, §6, §7, §8, §9, §10

[7] = substrate: OCCCCO; test: purified protein, by the assay type; settings: other: wild-type KpADH, 1 mM NADP+, Gly-NaOH pH 9.5, 30° C.
[8] = substrate: OCCCCCCO; test: Kinetic analysis of KpADH mutant M3 toward diol co-substrates; type: biochemical; settings: other: mutant M3, 1 mM NADP+, Gly-NaOH pH 9.5, 30° C.
Experimental: as §12, §2, §3, §4, §5, §6, §7, §8, §9, §10

[9] = substrate: OCCCCCO; test: as above; type: biochemical; settings: other: mutant M3, 1 mM NADP+, Gly-NaOH pH 9.5, 30° C.
Experimental: as §12, §2, §3, §4, §5, §6, §7, §8, §9, §10

[10] = substrate: OCCCCCCO; test: Kinetic analysis of KpADH mutant M5 toward diol co-substrates; type: biochemical; settings: other: mutant M5, 1 mM NADP+, Gly-NaOH pH 9.5, 30° C.
Experimental: as §1, §2, §3, §4, §5, §6, §7, §8, §9, §10

[11] = substrate: OCCCCCO; test: as above; type: biochemical; settings: other: mutant M5, 1 mM NADP+, Gly-NaOH pH 9.5, 30° C.
Experimental: as §1, §2, §3, §4, §5, §6, §7, §8, §9, §10

[12] = substrate: OCCCCCCO; test: Kinetic analysis of KpADH mutant M1 toward diol co-substrates; type: biochemical; settings: other: mutant M1, 1 mM NADP+, Gly-NaOH pH 9.5, 30° C.
Experimental: as §14, §2, §3, §4, §5, §6, §7, §8, §9, §10

[13] = substrate: OCCCCCO; test: as above; type: biochemical; settings: other: mutant M1, 1 mM NADP+, Gly-NaOH pH 9.5, 30° C.
Experimental: as §14, §2, §3, §4, §5, §6, §7, §8, §9, §10

[14] = substrate: OCCCCCCO; test: Kinetic analysis of KpADH mutant M4 toward diol co-substrates; type: biochemical; settings: other: mutant M4, 1 mM NADP+, Gly-NaOH pH 9.5, 30° C.
Experimental: (§15) M4 is obtained by mutating valine at position 84 into isoleucine and tyrosine at position 127 into cysteine in alcohol dehydrogenase having an original amino acid sequence as set forth in SEQ ID No. 1;
as §2, §3, §4, §5, §6, §7, §8, §9, §10

[15] = substrate: OCCCCCO; test: as above; type: biochemical; settings: other: mutant M4, 1 mM NADP+, Gly-NaOH pH 9.5, 30° C.
Experimental: as §15, §2, §3, §4, §5, §6, §7, §8, §9, §10

[16] = substrate: OCCCCCCO; test: Kinetic analysis of KpADH mutant M2 toward diol co-substrates; type: biochemical; settings: other: mutant M2, 1 mM NADP+, Gly-NaOH pH 9.5, 30° C.
Experimental: as §13, §2, §3, §4, §5, §6, §7, §8, §9, §10

[17] = substrate: OCCCCCO; test: as above; type: biochemical; settings: other: mutant M2, 1 mM NADP+, Gly-NaOH pH 9.5, 30° C.
Experimental: as §13, §2, §3, §4, §5, §6, §7, §8, §9, §10

[18] = mutant M1, 1 mM NADP+, Gly-NaOH pH 9.5, 30° C.
[19] = mutant M1 relative to wild-type KpADH

OCCCCCCO [1,6-hexanediol]
kcat/Km value, times that of wild-type KpADH [1]: 5.3 times
Km [2]: 18.5 ± 1.5 mM
kcat [2]: 41.9 ± 0.9 min⁻¹
catalytic efficiency kcat/Km, times that of wild-type KpADH [3]: 2.69 times

alcohol dehydrogenase KpADH mutant M2 (Y127C; parent SEQ ID No. 1) (Vanderwaltozyma polyspora DSM 70294; Y127C)
Km (OCCCCO; other: mutant M2, 1 mM NADP+): 38.1 ± 1.9 mM
kcat (OCCCCO; other: mutant M2, 1 mM NADP+): 0.463 s⁻¹
kcat/Km (OCCCCO; other: mutant M2, 1 mM NADP+): 12.2 M⁻¹ s⁻¹

OCCCCO [1,4-butanediol]
catalytic rates kcat [4]: 27.8 mM
kcat/Km value, times that of wild-type KpADH [1]: 14.7 times
kcat [5, 18]: 75.9 ± 1.3 min⁻¹
kcat/KM [5, 18]: 620 min⁻¹ M⁻¹
kcat value, times that of wild-type KpADH [5, 19]: 7.3 times
kcat/Km value, times that of wild-type KpADH [5, 19]: 4.53 times
catalytic rates kcat ([3]; mutant M3): 16.8 mM

OCCCCCO [1,5-pentanediol]
kcat/Km value, times that of wild-type KpADH [1]: 3.14 times
catalytic efficiency kcat/Km, times that of wild-type KpADH [3]: 4.36 times

alcohol dehydrogenase KpADH mutant M4 (V84I/Y127C; parent SEQ ID No. 1) (Vanderwaltozyma polyspora DSM 70294; V84I/Y127C)
Km (OCCCCO; other: mutant M4, 1 mM NADP+): 30.4 ± 1.3 mM
kcat (OCCCCO; other: mutant M4, 1 mM NADP+): 0.652 s⁻¹
kcat/Km (OCCCCO; other: mutant M4, 1 mM NADP+): 21.4 M⁻¹ s⁻¹

alcohol dehydrogenase KpADH mutant M3 (Y127M; parent SEQ ID No. 1) (Vanderwaltozyma polyspora DSM 70294; Y127M)
Km (OCCCCO; other: mutant M3, 1 mM NADP+): 12.1 ± 0.9 mM
kcat (OCCCCO; other: mutant M3, 1 mM NADP+): 0.28 s⁻¹
kcat/Km (OCCCCO; other: mutant M3, 1 mM NADP+): 23.2 M⁻¹ s⁻¹

alcohol dehydrogenase KpADH mutant M5 (V84I/Y127M; parent SEQ ID No. 1) (Vanderwaltozyma polyspora DSM 70294; V84I/Y127M)
Km (OCCCCO; other: mutant M5, 1 mM NADP+): 11.3 ± 0.8 mM
kcat (OCCCCO; other: mutant M5, 1 mM NADP+): 0.378 s⁻¹
kcat/Km (OCCCCO; other: mutant M5, 1 mM NADP+): 33.5 M⁻¹ s⁻¹

B1: alcohol dehydrogenase KpADH, wild type, SEQ ID No. 1 (Vanderwaltozyma polyspora DSM 70294) (protein)
chain: T1 sequence (A7TM80 1-342 V84I/Y127M) with I84V, M127Y
Km [6]: 74.4 ± 2.2 mM
kcat [6]: 55.7 ± 1.0 min⁻¹
kcat/Km [6]: 749 min⁻¹ M⁻¹
Km [7]: 75.6 ± 0.4 mM
kcat [7]: 0.173 s⁻¹
kcat/Km [7]: 2.28 M⁻¹ s⁻¹

B2: alcohol dehydrogenase KpADH mutant M3 (Y127M; parent SEQ ID No. 1) (Vanderwaltozyma polyspora DSM 70294; Y127M) (protein)
chain: T1 sequence (A7TM80 1-342 V84I/Y127M) with I84V
Km [8]: 6.48 ± 0.45 mM
kcat [8]: 39.5 ± 1.9 min⁻¹
kcat/Km [8]: 6093 min⁻¹ M⁻¹
Km [9]: 14.3 ± 0.9 mM
kcat [9]: 46.6 ± 1.7 min⁻¹
kcat/Km [9]: 3269 min⁻¹ M⁻¹

B3: alcohol dehydrogenase KpADH mutant M5 (V84I/Y127M; parent SEQ ID No. 1) (Vanderwaltozyma polyspora DSM 70294; V84I/Y127M) (protein)
chain: T1 sequence (A7TM80 1-342 V84I/Y127M)
Km [10]: 6.52 ± 1.0 mM
kcat [10]: 75.2 ± 2.1 min⁻¹
kcat/Km [10]: 12032 min⁻¹ M⁻¹
Km [11]: 8.21 ± 0.22 mM
kcat [11]: 19.3 ± 0.9 min⁻¹
kcat/Km [11]: 2353 min⁻¹ M⁻¹

B4: alcohol dehydrogenase KpADH mutant M1 (V84I; parent SEQ ID No. 1) (Vanderwaltozyma polyspora DSM 70294; V84I) (protein)
chain: T1 sequence (A7TM80 1-342 V84I/Y127M) with M127Y
Km [12]: 12.3 ± 0.7 mM
kcat [12]: 64.7 ± 1.7 min⁻¹
kcat/Km [12]: 5252 min⁻¹ M⁻¹
Km [13]: 42.5 ± 1.5 mM
kcat [13]: 51.1 ± 0.8 min⁻¹
kcat/Km [13]: 1202 min⁻¹ M⁻¹

B5: alcohol dehydrogenase KpADH mutant M4 (V84I/Y127C; parent SEQ ID No. 1) (Vanderwaltozyma polyspora DSM 70294; V84I/Y127C) (protein)
chain: T1 sequence (A7TM80 1-342 V84I/Y127M) with M127C
Km [14]: 12.9 ± 1.3 mM
kcat [14]: 98.3 ± 2.5 min⁻¹
kcat/Km [14]: 7630 min⁻¹ M⁻¹
Km [15]: 16.3 ± 0.8 mM
kcat [15]: 24.8 ± 1.1 min⁻¹
kcat/Km [15]: 1521 min⁻¹ M⁻¹

B6: alcohol dehydrogenase KpADH mutant M2 (Y127C; parent SEQ ID No. 1) (Vanderwaltozyma polyspora DSM 70294; Y127C) (protein)
chain: T1 sequence (A7TM80 1-342 V84I/Y127M) with I84V, M127C
Km [16]: 31.8 ± 1.7 mM
kcat [16]: 36.2 ± 2.2 min⁻¹
kcat/Km [16]: 1138 min⁻¹ M⁻¹
Km [17]: 63.5 ± 0.1 mM
kcat [17]: 25.1 ± 0.9 min⁻¹
kcat/Km [17]: 396 min⁻¹ M⁻¹
